Assay results from article PMC10675840, “Structure-function analysis of ceTIR-1/hSARM1 explains the lack of Wallerian axonal degeneration in C. elegans” (Cell reports, 2023).

What was measured:
ceTIR-1 = molecular target: T1, ceTIR-1 (Caenorhabditis elegans, UniProt Q86DA5); assay: HPLC NAD+ consumption, dose response; format: biochemical
T1 construct: gene tir-1; near-intact ARM-SAM-SAM-TIR, residues 162-872 (HMD...QQR), N-terminal 6xHis + TEV site, HEK293F expression, mostly 9-mer ring, partly dissociated
T1 sequence (Q86DA5 216-926): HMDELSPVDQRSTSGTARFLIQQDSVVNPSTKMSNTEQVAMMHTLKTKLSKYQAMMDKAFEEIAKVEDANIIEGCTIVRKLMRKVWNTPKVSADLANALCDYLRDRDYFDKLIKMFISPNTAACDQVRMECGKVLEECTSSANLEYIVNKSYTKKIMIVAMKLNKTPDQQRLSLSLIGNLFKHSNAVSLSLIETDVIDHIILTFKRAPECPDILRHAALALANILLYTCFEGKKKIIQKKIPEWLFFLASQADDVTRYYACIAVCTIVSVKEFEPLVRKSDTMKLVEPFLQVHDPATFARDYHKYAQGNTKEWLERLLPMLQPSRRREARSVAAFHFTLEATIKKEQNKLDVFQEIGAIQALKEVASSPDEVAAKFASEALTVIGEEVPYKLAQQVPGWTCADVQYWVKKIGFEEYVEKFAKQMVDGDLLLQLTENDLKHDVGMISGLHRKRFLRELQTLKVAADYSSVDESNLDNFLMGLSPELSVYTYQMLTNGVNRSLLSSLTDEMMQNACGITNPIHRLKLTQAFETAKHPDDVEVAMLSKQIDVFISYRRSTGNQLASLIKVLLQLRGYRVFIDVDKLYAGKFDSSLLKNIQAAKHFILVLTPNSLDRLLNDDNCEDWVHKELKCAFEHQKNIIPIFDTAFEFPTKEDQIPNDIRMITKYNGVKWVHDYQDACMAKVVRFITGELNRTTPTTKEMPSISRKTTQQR
Excerpt: HPLC NAD+ consumption, dose response on ceTIR-1 | Nicotinamide (NAM) inhibits ceTIR-1 NADase activity

[1] = substrate: NC(=O)c1ccc[n+]([C@@H]2O[C@H](COP(=O)(O)OP(=O)(O)OC[C@H]3O[C@@H](n4cnc5c(N)ncnc54)[C@H](O)[C@@H]3O)[C@@H](O)[C@H]2O)c1; assay: HPLC NAD+ consumption, Michaelis-Menten fit; format: biochemical, Caenorhabditis elegans; conditions: […] min, […] enzyme, pH […], unit appears as mM, a character error for µM (b50 gives about […] for hSARM1 and […] higher for ceTIR-1)
[2] = molecular target: the molecule itself; assay: cross-linking; glutaraldehyde cross-linking of ceTIR-1^TIR and ceTIR-1^(TIR L729H)
[3] = molecular target: the molecule itself; assay: SEC; gel filtration of Ni-NTA purified hSARM1 and ceTIR-1, fractions read by anti-FLAG WB; Superdex 200 Increase 10/300, 25 mM phosphate pH 8.5, 120 mM NaCl, 2.5% glycerol, 1 mM DTT
[4] = molecular target: the molecule itself; assay: cryo-EM structure; purified CHIMERA supplemented with 5 mM NAD+; Titan Krios; 136,346 particles, C8 symmetry imposed
[5] = molecular target: T2, hSARM1 ARM and SAM domains (residues 26-562), the human part of CHIMERA (human, UniProt Q6SZW1 26-562); assay: as above; conditions: both partners purified
T2 construct: human SARM1 ARM and SAM domains, residues 26-562 (26ERL...DTP562); Stood joined on one chain with m8 (together they are CHIMERA); written apart only for the contact of the human ARM with the C. elegans TIR in the structure; also called human ARM and SAM domains; source: HEK293F, transfected, purified, as part of the CHIMERA chain
T2 sequence (looked up): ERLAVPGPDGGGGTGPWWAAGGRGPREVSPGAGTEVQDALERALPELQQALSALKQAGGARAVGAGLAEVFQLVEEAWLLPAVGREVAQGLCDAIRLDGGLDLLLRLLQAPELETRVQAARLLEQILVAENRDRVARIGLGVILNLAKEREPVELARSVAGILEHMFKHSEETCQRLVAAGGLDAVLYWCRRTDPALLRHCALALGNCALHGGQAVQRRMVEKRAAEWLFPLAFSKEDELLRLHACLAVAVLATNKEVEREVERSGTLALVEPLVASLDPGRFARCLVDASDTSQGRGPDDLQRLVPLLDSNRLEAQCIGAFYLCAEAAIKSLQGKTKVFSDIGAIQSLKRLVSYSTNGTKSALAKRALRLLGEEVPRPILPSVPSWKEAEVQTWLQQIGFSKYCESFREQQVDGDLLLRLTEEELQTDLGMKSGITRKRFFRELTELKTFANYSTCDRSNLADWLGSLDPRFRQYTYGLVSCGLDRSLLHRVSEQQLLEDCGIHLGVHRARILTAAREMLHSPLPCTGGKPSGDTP

NC(=O)c1cccnc1 [NAM] was tested, and the IC50 (ceTIR-1) was 910 µM.

B1: ceTIR-1 (Caenorhabditis elegans) (protein)
chain: HMDELSPVDQRSTSGTARFLIQQDSVVNPSTKMSNTEQVAMMHTLKTKLSKYQAMMDKAFEEIAKVEDANIIEGCTIVRKLMRKVWNTPKVSADLANALCDYLRDRDYFDKLIKMFISPNTAACDQVRMECGKVLEECTSSANLEYIVNKSYTKKIMIVAMKLNKTPDQQRLSLSLIGNLFKHSNAVSLSLIETDVIDHIILTFKRAPECPDILRHAALALANILLYTCFEGKKKIIQKKIPEWLFFLASQADDVTRYYACIAVCTIVSVKEFEPLVRKSDTMKLVEPFLQVHDPATFARDYHKYAQGNTKEWLERLLPMLQPSRRREARSVAAFHFTLEATIKKEQNKLDVFQEIGAIQALKEVASSPDEVAAKFASEALTVIGEEVPYKLAQQVPGWTCADVQYWVKKIGFEEYVEKFAKQMVDGDLLLQLTENDLKHDVGMISGLHRKRFLRELQTLKVAADYSSVDESNLDNFLMGLSPELSVYTYQMLTNGVNRSLLSSLTDEMMQNACGITNPIHRLKLTQAFETAKHPDDVEVAMLSKQIDVFISYRRSTGNQLASLIKVLLQLRGYRVFIDVDKLYAGKFDSSLLKNIQAAKHFILVLTPNSLDRLLNDDNCEDWVHKELKCAFEHQKNIIPIFDTAFEFPTKEDQIPNDIRMITKYNGVKWVHDYQDACMAKVVRFITGELNRTTPTTKEMPSISRKTTQQR
notes: near-intact ARM-SAM-SAM-TIR, residues 162-872 (HMD...QQR), N-terminal 6xHis + TEV site, HEK293F expression, mostly 9-mer ring, partly dissociated
Molecule B1 has a Km [1] of 0.25 mM.

B2: ceTIR-1^TIR (residues 703-872) (domain or fragment, C. elegans, UniProt Q86DA5-2 703-872, looked up)
chain: MLSKQIDVFISYRRSTGNQLASLIKVLLQLRGYRVFIDVDKLYAGKFDSSLLKNIQAAKHFILVLTPNSLDRLLNDDNCEDWVHKELKCAFEHQKNIIPIFDTAFEFPTKEDQIPNDIRMITKYNGVKWVHDYQDACMAKVVRFITGELNRTTPTTKEMPSISRKTTQQR
notes: ceTIR-1 TIR domain, residues 703-872 (703MLS...QQR872); Dimeric by glutaraldehyde cross-linking; also called isolated TIR domain of ceTIR-1; source: E. coli T7 Express, purified (HisTrap, TEV, second HisTrap, Superdex SEC); not shown: His tag, N-terminal, cleaved
With B2 the “stoichiometry N” value [2] was 2.

B3: hSARM1 (near-intact, residues 26-724) (enzyme, human, UniProt Q6SZW1 26-724, looked up)
chain: ERLAVPGPDGGGGTGPWWAAGGRGPREVSPGAGTEVQDALERALPELQQALSALKQAGGARAVGAGLAEVFQLVEEAWLLPAVGREVAQGLCDAIRLDGGLDLLLRLLQAPELETRVQAARLLEQILVAENRDRVARIGLGVILNLAKEREPVELARSVAGILEHMFKHSEETCQRLVAAGGLDAVLYWCRRTDPALLRHCALALGNCALHGGQAVQRRMVEKRAAEWLFPLAFSKEDELLRLHACLAVAVLATNKEVEREVERSGTLALVEPLVASLDPGRFARCLVDASDTSQGRGPDDLQRLVPLLDSNRLEAQCIGAFYLCAEAAIKSLQGKTKVFSDIGAIQSLKRLVSYSTNGTKSALAKRALRLLGEEVPRPILPSVPSWKEAEVQTWLQQIGFSKYCESFREQQVDGDLLLRLTEEELQTDLGMKSGITRKRFFRELTELKTFANYSTCDRSNLADWLGSLDPRFRQYTYGLVSCGLDRSLLHRVSEQQLLEDCGIHLGVHRARILTAAREMLHSPLPCTGGKPSGDTPDVFISYRRNSGSQLASLLKVHLQLHGFSVFIDVEKLEAGKFEDKLIQSVMGARNFVLVLSPGALDKCMQDHDCKDWVHKEIVTALSCGKNIVPIIDGFEWPEPQVLPEDMQAVLTFNGIKWSHEYQEATIEKIIRFLQGRSSRDSSAGSDTSLEGAAPMGPT
notes: human SARM1 (sterile alpha and TIR motif containing 1), residues 26-724 (26ERL...GPT724); A TEV site follows the His tag; no cleavage is described; also called human SARM1; source: HEK293F, transfected, purified (Ni-chelate, Superdex 200 Increase SEC)
B3: binds [3].

B4: CHIMERA (hSARM1 26-562 fused to ceTIR-1 709-872) (enzyme, human | C. elegans, UniProt Q6SZW1 26-562, looked up)
chain: ERLAVPGPDGGGGTGPWWAAGGRGPREVSPGAGTEVQDALERALPELQQALSALKQAGGARAVGAGLAEVFQLVEEAWLLPAVGREVAQGLCDAIRLDGGLDLLLRLLQAPELETRVQAARLLEQILVAENRDRVARIGLGVILNLAKEREPVELARSVAGILEHMFKHSEETCQRLVAAGGLDAVLYWCRRTDPALLRHCALALGNCALHGGQAVQRRMVEKRAAEWLFPLAFSKEDELLRLHACLAVAVLATNKEVEREVERSGTLALVEPLVASLDPGRFARCLVDASDTSQGRGPDDLQRLVPLLDSNRLEAQCIGAFYLCAEAAIKSLQGKTKVFSDIGAIQSLKRLVSYSTNGTKSALAKRALRLLGEEVPRPILPSVPSWKEAEVQTWLQQIGFSKYCESFREQQVDGDLLLRLTEEELQTDLGMKSGITRKRFFRELTELKTFANYSTCDRSNLADWLGSLDPRFRQYTYGLVSCGLDRSLLHRVSEQQLLEDCGIHLGVHRARILTAAREMLHSPLPCTGGKPSGDTPDVFISYRRSTGNQLASLIKVLLQLRGYRVFIDVDKLYAGKFDSSLLKNIQAAKHFILVLTPNSLDRLLNDDNCEDWVHKELKCAFEHQKNIIPIFDTAFEFPTKEDQIPNDIRMITKYNGVKWVHDYQDACMAKVVRFITGELNRTTPTTKEMPSISRKTTQQR
notes: human SARM1 ARM and SAM domains, residues 26-562 (26ERL...DTP562); ceTIR-1 TIR domain, residues 709-872 (709DVF...QQR872); Octamer by cryo-EM, sample supplemented with 5 mM NAD+; also called hARM-SAM-ceTIR CHIMERA; Chimera construct; source: HEK293F, transfected, purified (Ni-chelate, Superdex 200 Increase SEC)
With B4 the “stoichiometry N” value [4] was 8.

B5: ceTIR-1 TIR domain (residues 709-872), the C. elegans part of CHIMERA (domain or fragment, UniProt Q86DA5-2 709-872, looked up)
chain: DVFISYRRSTGNQLASLIKVLLQLRGYRVFIDVDKLYAGKFDSSLLKNIQAAKHFILVLTPNSLDRLLNDDNCEDWVHKELKCAFEHQKNIIPIFDTAFEFPTKEDQIPNDIRMITKYNGVKWVHDYQDACMAKVVRFITGELNRTTPTTKEMPSISRKTTQQR
notes: ceTIR-1 TIR domain, residues 709-872 (709DVF...QQR872); Stood joined on one chain with m7 (together they are CHIMERA); also called C. elegans TIR; source: HEK293F, transfected, purified, as part of the CHIMERA chain
B5: binds [5].
